Laboratory results reported in US20050084868A1 (published 2005).

T1: carcinoembryonic antigen (UniProt P06731 35-685)
T1 construct: Bought reagent (Biodesign); also called CEA
T1 sequence: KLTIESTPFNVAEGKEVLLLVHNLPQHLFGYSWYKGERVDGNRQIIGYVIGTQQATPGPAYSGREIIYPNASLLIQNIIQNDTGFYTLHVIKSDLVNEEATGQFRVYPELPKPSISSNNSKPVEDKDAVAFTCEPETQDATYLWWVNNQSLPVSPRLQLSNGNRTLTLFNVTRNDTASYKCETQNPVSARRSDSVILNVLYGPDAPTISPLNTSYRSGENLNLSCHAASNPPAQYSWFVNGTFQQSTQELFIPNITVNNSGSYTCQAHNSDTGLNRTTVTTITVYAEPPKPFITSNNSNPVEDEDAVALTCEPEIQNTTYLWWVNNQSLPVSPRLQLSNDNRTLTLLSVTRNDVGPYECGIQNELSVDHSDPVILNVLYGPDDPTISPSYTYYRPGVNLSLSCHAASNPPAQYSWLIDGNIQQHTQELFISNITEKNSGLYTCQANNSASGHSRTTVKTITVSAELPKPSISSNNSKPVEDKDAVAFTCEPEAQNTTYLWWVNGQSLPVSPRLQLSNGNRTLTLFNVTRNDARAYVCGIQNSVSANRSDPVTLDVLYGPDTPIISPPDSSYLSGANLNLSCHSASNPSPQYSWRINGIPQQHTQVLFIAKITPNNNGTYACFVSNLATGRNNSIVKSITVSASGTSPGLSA


The binders below were run against T1, carcinoembryonic antigen (assay: CEA-coated plate assay on thermolysin-treated lysate, BLA/nitrocefin read-out).

Binder	binding result
NA06.4 (scFv, Variant of the CAB1 scFv-BLA fusion built on NA05.6; Tested as crude lysate after thermolysin treatment; Positions are numbered along the whole CAB1 fusion (pME27)) QVKLQQSGAELVKSGGSVKLSCTASGFNIKDSYMHWVRQGPEQGLEWIGWIDPENGDTEYAPKFQGKATFTTDTSSNTAYLQLSSLTSEDTAVYYCNEGTPTGPYYFDYWGQGTTVTVSSGGGGSGGGGSGGGGSENVLTQSPAIVSASPGEKVTITCSASSSVSYMHWFQQKPGTSPKLVIYSTSNLASGVPARFSGSGSGTSYSLTISRMEAEDAATYYCQQRSSYPLTFGAGTKLELKRAATLVSEKQLAEVVANTITPLMKAQSVPGMAVAVIYQGKPHYYTFGKADIAANKPVTPQTLFELGSISKTFTGVLGGDAIARGEISLDDAVTRYWPQLTGKQWQGIRMLDLATYTAGGLPLQVPDEVTDNASLLRFYQNWQPQWKPGTTRLYANASIGLFGALAVKPSGMPYEQAMTTRVLKPLKLDHTWINVPKAEEAHYAWGYRDGKAVRVSPGMLDAQAYGVKTNVQDMANWVMANMAPENVADASLKQGIALAQSRYWRIGSMYQGLGWEMLNWPVEANTVVETSFGNVALAPLPVAEVNPPAPPVKASWVHKTGSTGGFGSYVAFIPEKQIGIVMLANTSYPNPARVEAAYHILEALQ	binds
NA06.11 (scFv, Variant of the CAB1 scFv-BLA fusion built on NA05.6; Tested as crude lysate after thermolysin treatment; Positions are numbered along the whole CAB1 fusion (pME27)) QVQLQQSGAELVKSGGSVKLSCTASGFNIKDSYMHWVRQGPEQGLEWIGWIDPENGDTEYAPKFQGKATFTTDTSSNTAYLQLSSLTSEDTAVYYCNEGTPTGPYYFDYWGQGTTVTVSSGGGGSGGGGSGGGGSENVLTQSPAIMSASPGEKVTITCSASSSVSYMHWFQQKPGTSPKLVIYSTSNLASGVPDRFSGSGSGTSYSLTISRMEAEDAATYYCQQRSSYPLTFGAGTKLELKRAATLVSEKQLAEVVANTITPLMKAQSVPGMAVAVIYQGKPHYYTFGKADIAANKPVTPQTLFELGSISKTFTGVLGGDAIARGEISLDDAVTRYWPQLTGKQWQGIRMLDLATYTAGGLPLQVPDEVTDNASLLRFYQNWQPQWKPGTTRLYANASIGLFGALAVKPSGMPYEQAMTTRVLKPLKLDHTWINVPKAEEAHYAWGYRDGKAVRVSPGMLDAQAYGVKTNVQDMANWVMANMAPENVADASLKQGIALAQSRYWRIGSMYQGLGWEMLNWPVEANTVVETSFGNVALAPLPVAEVNPPAPPVKASWVHKTGSTGGFGSYVAFIPEKQIGIVMLANTSYPNPARVEAAYHILEALQ	binds
NA06.6 (scFv, Variant of the CAB1 scFv-BLA fusion built on NA05.6; Tested as crude lysate after thermolysin treatment; Positions are numbered along the whole CAB1 fusion (pME27)) QVQLQQSGAELVKSGGSVKLSCTASGFNIKDSYMHWVRQGPEQGLEWIGWIDPENGDTEYAPKFQGKATFTTDTSSNTAYLQLSSLTSEDTAVYYCNEGTPTGPYYFDYWGQGTTVTVSSGGGGSGGGGSGGGGSENVLTQSPAIVSASPGEKVTITCSASSSVSYMHWFQQKPGTSPKLVIYSTSNLASGVPARFSGSGSGTSYSLTISRMEAEDAATYYCQQRSSYPLTFGAGTKLELKRAATLVSEKQLAEVVANTITPLMKAQSVPGMAVAVIYQGKPHYYTFGKADIAANKPVTPQTLFELGSISKTFTGVLGGDAIARGEISLDDAVTRYWPQLTGKQWQGIRMLDLATYTAGGLPLQVPDEVTDNASLLRFYQNWQPQWKPGTTRLYANASIGLFGALAVKPSGMPYEQAMTTRVLKPLKLDHTWINVPKAEEAHYAWGYRDGKAVRVSPGMLDAQAYGVKTNVQDMANWVMANMAPENVADASLKQGIALAQSRYWRIGSMYQGLGWEMLNWPVEANTVVETSFGNVALAPLPVAEVNPPAPPVKASWVHKTGSTGGFGSYVAFIPEKQIGIVMLANTSYPNPARVEAAYHILEALQ	binds
NA06.10 (scFv, Variant of the CAB1 scFv-BLA fusion built on NA05.6; Tested as crude lysate after thermolysin treatment; Positions are numbered along the whole CAB1 fusion (pME27)) QVKLQQSGAELVKSGGSVKLSCTASGFNIKDSYMHWVRQGPEQGLEWIGWIDPENGDTEYAPKFQGKATFTTDTSSNTAYLQLSSLTSEDTAVYYCNEGTPTGPYYFDYWGQGTTVTVSSGGGGSGGGGSGGGGSENVLTQSPAIVSASPGEKVTITCSASSSVSYMHWFQQKPGTSPKLVIYSTSNLASGVPDRFSGSGSGTSYSLTISRMEAEDAATYYCQQRSSYPLTFGAGTKLELKRAATLVSEKQLAEVVANTITPLMKAQSVPGMAVAVIYQGKPHYYTFGKADIAANKPVTPQTLFELGSISKTFTGVLGGDAIARGEISLDDAVTRYWPQLTGKQWQGIRMLDLATYTAGGLPLQVPDEVTDNASLLRFYQNWQPQWKPGTTRLYANASIGLFGALAVKPSGMPYEQAMTTRVLKPLKLDHTWINVPKAEEAHYAWGYRDGKAVRVSPGMLDAQAYGVKTNVQDMANWVMANMAPENVADASLKQGIALAQSRYWRIGSMYQGLGWEMLNWPVEANTVVETSFGNVALAPLPVAEVNPPAPPVKASWVHKTGSTGGFGSYVAFIPEKQIGIVMLANTSYPNPARVEAAYHILEALQ	binds
NA06.2 (scFv, Variant of the CAB1 scFv-BLA fusion built on NA05.6; Tested as crude lysate after thermolysin treatment; Positions are numbered along the whole CAB1 fusion (pME27)) QVKLQQSGAELVKSGGSVKLSCTASGFNIKDSYMHWVRQGPGQGLEWIGWIDPENGDTEYAPKFQGKATFTTDTSSNTAYLQLSSLTSEDTAVYYCNEGTPTGPYYFDYWGQGTTVTVSSGGGGSGGGGSGGGGSENVLTQSPAIMSASPGEKVTITCSASSSVSYMHWFQQKPGTSPKLVIYSTSNLASGVPDRFSGSGSGTSYSLTISRMEAEDAATYYCQQRSSYPLTFGAGTKLELKRAATLVSEKQLAEVVANTITPLMKAQSVPGMAVAVIYQGKPHYYTFGKADIAANKPVTPQTLFELGSISKTFTGVLGGDAIARGEISLDDAVTRYWPQLTGKQWQGIRMLDLATYTAGGLPLQVPDEVTDNASLLRFYQNWQPQWKPGTTRLYANASIGLFGALAVKPSGMPYEQAMTTRVLKPLKLDHTWINVPKAEEAHYAWGYRDGKAVRVSPGMLDAQAYGVKTNVQDMANWVMANMAPENVADASLKQGIALAQSRYWRIGSMYQGLGWEMLNWPVEANTVVETSFGNVALAPLPVAEVNPPAPPVKASWVHKTGSTGGFGSYVAFIPEKQIGIVMLANTSYPNPARVEAAYHILEALQ	binds
NA06.12 (scFv, Variant of the CAB1 scFv-BLA fusion built on NA05.6; Tested as crude lysate after thermolysin treatment; Positions are numbered along the whole CAB1 fusion (pME27)) QVKLQQSGAELVKSGGSVKLSCTASGFNIKDSYMHWVRQGPEQGLEWIGWIDPENGDTEYAPKFQGKATFTTDTSSNTAYLQLSSLTSEDTAVYYCNEGTPTGPYYFDYWGQGTTVTVSSGGGGSGGGGSGGGGSQNVLTQSPAIMSASPGEKVTITCSASSSVSYMHWFQQKPGTSPKLVIYSTSNLASGVPARFSGSGSGTSYSLTISRMEAEDAATYYCQQRSSYPLTFGAGTKLELKRAATLVSEKQLAEVVANTITPLMKAQSVPGMAVAVIYQGKPHYYTFGKADIAANKPVTPQTLFELGSISKTFTGVLGGDAIARGEISLDDAVTRYWPQLTGKQWQGIRMLDLATYTAGGLPLQVPDEVTDNASLLRFYQNWQPQWKPGTTRLYANASIGLFGALAVKPSGMPYEQAMTTRVLKPLKLDHTWINVPKAEEAHYAWGYRDGKAVRVSPGMLDAQAYGVKTNVQDMANWVMANMAPENVADASLKQGIALAQSRYWRIGSMYQGLGWEMLNWPVEANTVVETSFGNVALAPLPVAEVNPPAPPVKASWVHKTGSTGGFGSYVAFIPEKQIGIVMLANTSYPNPARVEAAYHILEALQ	binds

The binders below were run against T1, carcinoembryonic antigen (assay: plate assay: CEA coated on wells, culture lysate added, bound fusion read by BLA activity on nitrocefin).

Binder	binding result
NA05.6 (scFv, Variant of the CAB1 scFv-BLA fusion (plasmid pME27.1), tested as crude E. coli lysate; also called pNA05.6; parent NA05.6) QVKLQQSGAELVKSGGSVKLSCTASGFNIKDSYMHWLRQGPEQGLEWIGWIDPENGDTEYAPKFQGKATFTTDTSSNTAYLQLSSLTSEDTAVYYCNEGTPTGPYYFDYWGQGTTVTVSSGGGGSGGGGSGGGGSENVLTQSPAIMSASPGEKVTITCSASSSVSYMHWFQQKPGTSPKLVIYSTSNLASGVPARFSGSGSGTSYSLTISRMEAEDAATYYCQQRSSYPLTFGAGTKLELKRAATLVSEKQLAEVVANTITPLMKAQSVPGMAVAVIYQGKPHYYTFGKADIAANKPVTPQTLFELGSISKTFTGVLGGDAIARGEISLDDAVTRYWPQLTGKQWQGIRMLDLATYTAGGLPLQVPDEVTDNASLLRFYQNWQPQWKPGTTRLYANASIGLFGALAVKPSGMPYEQAMTTRVLKPLKLDHTWINVPKAEEAHYAWGYRDGKAVRVSPGMLDAQAYGVKTNVQDMANWVMANMAPENVADASLKQGIALAQSRYWRIGSMYQGLGWEMLNWPVEANTVVETSFGNVALAPLPVAEVNPPAPPVKASWVHKTGSTGGFGSYVAFIPEKQIGIVMLANTSYPNPARVEAAYHILEALQ	binds
NA05.8 (scFv, Variant of the CAB1 scFv-BLA fusion, tested as crude lysate; Positions are numbered along the whole CAB1 fusion (pME27)) QVKLQQSGAELVKSGTSVKLSCTASGFNIKDSYMHWLRQGPEQGLEWIGWIDPENGDTEYAPKFQGKATFTTDTSSNTAYLQLSSLTSEDTAVYYCNEGTPTGPYYFDYWGQGTTVTVSSGGGGSGGGGSGGGGSENVLTQSPAIMSASPGEKVTITCSASSSVSYMHWYQQKPGTSPKLWIYSTSNLASGVPARFSGSGSGTSYSLTISRMEAEDAATYYCQQRSSYPLTFGGGTKLELKRAATLVSEKQLAEVVANTITPLMKAQSVPGMAVAVIYQGKPHYYTFGKADIAANKPVTPQTLFELGSISKTFTGVLGGDAIARGEISLDDAVTRYWPQLTGKQWQGIRMLDLATYTAGGLPLQVPDEVTDNASLLRFYQNWQPQWKPGTTRLYANASIGLFGALAVKPSGMPYEQAMTTRVLKPLKLDHTWINVPKAEEAHYAWGYRDGKAVRVSPGMLDAQAYGVKTNVQDMANWVMANMAPENVADASLKQGIALAQSRYWRIGSMYQGLGWEMLNWPVEANTVVETSFGNVALAPLPVAEVNPPAPPVKASWVHKTGSTGGFGSYVAFIPEKQIGIVMLANTSYPNPARVEAAYHILEALQ	binds
